Assay results published in patent US20090117126A1 (UCB, published 2009).

T1: recombinant human IL-17 (human, UniProt Q16552 20-155, limits assumed)
T1 sequence (looked up): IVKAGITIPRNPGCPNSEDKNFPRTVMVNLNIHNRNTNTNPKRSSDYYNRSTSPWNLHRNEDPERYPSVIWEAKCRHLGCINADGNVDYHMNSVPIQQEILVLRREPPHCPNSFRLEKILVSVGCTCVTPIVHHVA


How the values were obtained:
recombinant human IL-17 [1] = molecular target: T1, recombinant human IL-17; assay: cell-based or functional assay
monkey recombinant IL-17 = monkey recombinant IL-17 (monkey); assay: cell-based or functional assay
recombinant human IL-17 [2] = molecular target: T1, recombinant human IL-17; assay: BIAcore 3000; mean of the five replicates of Table 1; mean of the replicates of Table 1; CDP435 captured by anti-human IgG F(ab)2, IL-17 in solution
Method: The assay format used CDP435 captured by anti-human IgG F(ab)₂ with a titration of recombinant human IL-17 in the solution phase. BIA (Biamolecular Interaction Analysis) was performed using a BIAcore 3000 (BIAcore AB). Affinipure F(ab′)₂ Fragment goat anti-human IgG, F(ab)₂ fragment specific (Jackson ImmunoResearch) was immobilised on a CM5 Sensor Chip via amine coupling chemistry to a capture level of ≈9000 response units (RUs). HBS-EP buffer (10 mM HEPES pH 7.4, 0.15 M NaCl, 3 mM EDTA, 0.005% Surfactant P20, BIAcore AB) was used as the running buffer with a flow rate of 10 μl/min. An injection of CDP435 was made at 10 μl/min in order to obtain around 200 Ru of Fab captured by the immobilised anti-human IgG-F(ab)₂ to the surface. Human IL-17 was titrated over the captured antibody Fab fragment at various concentrations at a flow rate of 30 μl/min. The surface was regenerated by a 2×10 μl injection of 40 mM HCl, followed by a 5 μl injection of 5 mM NaOH at a flow rate of 10 μl/min.
Background subtraction binding curves were analysed using the BIAevaluation software (version 3.2) following standard procedures. Kinetic parameters were determined from the fitting algorithm. The affinity was measured at human IL-17 concentrations at or below 12.5 nM.

recombinant human IL-17 [3] = molecular target: T1, recombinant human IL-17; assay: cell-based or functional assay; remark: listed apart in the source

Row | Binder | IC50, human IL-17 (25 ng/ml) induced IL-6 production from Hela cells (recombinant human IL-17 [1]) | IC50, monkey IL-17 (25 ng/ml) induced IL-6 production from Hela cells (monkey recombinant IL-17) | Kd (recombinant human IL-17 [2]) | IC50 (read off the curve) (recombinant human IL-17 [3])
1 | CDP435 (PEGylated Fab fragment, gH11gL3 graft, 2 x 20 kDa PEG) (Fab, V domains shown, 20 kDa PEG-maleimide on the interchain cysteine of CL (position 214 by Kabat numbering, 218 by sequential numbering); 20 kDa PEG-maleimide on the interchain cysteine of CH1 (cys-233 by Kabat numbering, cys-222 by sequential numbering; C-terminal residue), no interchain disulphide after PEGylation) VH: EVQLVESGGGVVQPGGSLRLSCAVSGFSLTTYGVHWVRQAPGKGLEWVAVIWSDGYTTYNSALKSRFTISRDNSKNTVYLQMNSLRAEDTAVYYCARNDGDYFYSMDYWGQGTLVTVSS VL: DVQMTQSPSSLSASVGDRVTITCRSSQSLVHSNGNTYLHWYQQKPGKAPKLLIYKVSNRFSGVPSRFSGSGSGTDFTLTISSLQPEDFATYYCSQSTHVPTFGQGTKVEIKR | 0.158 µg/mL | 0.147 µg/mL | 0.224 nM | –
2 | antibody Fab fragment of CDP435 (not PEGylated) (Fab, V domains shown) VH: EVQLVESGGGVVQPGGSLRLSCAVSGFSLTTYGVHWVRQAPGKGLEWVAVIWSDGYTTYNSALKSRFTISRDNSKNTVYLQMNSLRAEDTAVYYCARNDGDYFYSMDYWGQGTLVTVSS VL: DVQMTQSPSSLSASVGDRVTITCRSSQSLVHSNGNTYLHWYQQKPGKAPKLLIYKVSNRFSGVPSRFSGSGSGTDFTLTISSLQPEDFATYYCSQSTHVPTFGQGTKVEIKR | – | – | – | ~0.2 µg/mL
3 | murine monoclonal antibody IL-17F4.100 (antibody, V domains shown) VH: QVQLKESGPGLVAPSQSLSITCTVSGFSLTTYGVHWIRQPPGKGLEWLVVIWSDGYTTYNSALKSRLSITKDNSKSQVFLKMNSLQTDDTAMYYCARNDGDYFYSMDYWGQGTSVTVSS VL: DVVMTQTPLSLPVSLGDQASFSCRSSQSLVHSNGNTYLHWYLQKPGQSPKLLIYKVSNRFSGVPDRFSGSGSGTDFTLKISRVEAEDLGVYFCSQSTHVPTFGGGTKLEIKR | – | – | – | ~0.2 µg/mL
